Residue numbers refer to the chain shown, from its start. Each block holds one binder with its values, some of them ahead of it.
Target: T1, RLC-depleted cardiac beta-myosin (myosin heavy chain) (Sus scrofa, UniProt P79293)
T1 chain: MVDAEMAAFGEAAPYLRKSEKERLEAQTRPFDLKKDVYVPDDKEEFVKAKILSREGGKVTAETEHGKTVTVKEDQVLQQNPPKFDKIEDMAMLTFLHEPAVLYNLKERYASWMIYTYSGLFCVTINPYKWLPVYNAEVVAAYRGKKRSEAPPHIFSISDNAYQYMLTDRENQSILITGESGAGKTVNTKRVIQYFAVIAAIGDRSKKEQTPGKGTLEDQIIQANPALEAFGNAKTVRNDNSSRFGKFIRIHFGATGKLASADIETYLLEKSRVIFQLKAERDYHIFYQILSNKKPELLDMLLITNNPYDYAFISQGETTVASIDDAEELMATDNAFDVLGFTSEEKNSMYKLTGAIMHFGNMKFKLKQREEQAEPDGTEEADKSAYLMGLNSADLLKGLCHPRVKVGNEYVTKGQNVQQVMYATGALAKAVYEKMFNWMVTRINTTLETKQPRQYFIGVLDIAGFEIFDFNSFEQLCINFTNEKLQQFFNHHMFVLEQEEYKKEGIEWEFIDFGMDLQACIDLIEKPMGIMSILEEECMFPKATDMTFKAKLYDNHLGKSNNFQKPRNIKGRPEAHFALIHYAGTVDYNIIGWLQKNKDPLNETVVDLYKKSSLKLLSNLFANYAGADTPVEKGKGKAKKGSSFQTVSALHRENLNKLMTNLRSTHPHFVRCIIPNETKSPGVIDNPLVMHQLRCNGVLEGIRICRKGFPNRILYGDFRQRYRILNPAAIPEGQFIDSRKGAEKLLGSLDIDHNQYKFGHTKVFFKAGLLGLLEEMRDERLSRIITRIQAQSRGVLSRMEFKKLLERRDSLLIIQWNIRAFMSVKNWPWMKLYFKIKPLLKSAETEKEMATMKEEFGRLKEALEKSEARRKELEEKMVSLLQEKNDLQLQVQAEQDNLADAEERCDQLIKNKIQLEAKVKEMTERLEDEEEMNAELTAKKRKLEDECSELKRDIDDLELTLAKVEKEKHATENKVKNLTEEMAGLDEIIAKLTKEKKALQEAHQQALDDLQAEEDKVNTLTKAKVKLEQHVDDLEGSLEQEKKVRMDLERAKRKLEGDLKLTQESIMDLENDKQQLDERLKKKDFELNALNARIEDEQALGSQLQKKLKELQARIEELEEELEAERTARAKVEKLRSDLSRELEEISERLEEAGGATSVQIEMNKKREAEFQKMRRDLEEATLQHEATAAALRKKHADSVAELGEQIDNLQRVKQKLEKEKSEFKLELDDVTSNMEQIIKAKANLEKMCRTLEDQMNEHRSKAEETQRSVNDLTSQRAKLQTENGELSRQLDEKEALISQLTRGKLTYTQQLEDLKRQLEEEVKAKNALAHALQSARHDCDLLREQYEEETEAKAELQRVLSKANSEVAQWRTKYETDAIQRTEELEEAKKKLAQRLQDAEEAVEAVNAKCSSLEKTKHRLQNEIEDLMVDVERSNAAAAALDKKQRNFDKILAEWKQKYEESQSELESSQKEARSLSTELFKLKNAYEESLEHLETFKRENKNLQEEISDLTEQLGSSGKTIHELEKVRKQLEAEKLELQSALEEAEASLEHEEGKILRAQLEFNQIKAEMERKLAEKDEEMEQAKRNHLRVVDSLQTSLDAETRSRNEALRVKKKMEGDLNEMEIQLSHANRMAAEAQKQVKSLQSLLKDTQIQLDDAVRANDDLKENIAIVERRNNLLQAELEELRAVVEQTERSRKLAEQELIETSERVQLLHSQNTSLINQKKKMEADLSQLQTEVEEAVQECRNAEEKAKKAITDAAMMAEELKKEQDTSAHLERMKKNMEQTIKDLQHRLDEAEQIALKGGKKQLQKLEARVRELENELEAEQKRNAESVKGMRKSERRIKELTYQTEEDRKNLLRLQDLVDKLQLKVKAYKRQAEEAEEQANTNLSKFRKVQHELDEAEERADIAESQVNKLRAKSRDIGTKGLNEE
Experiment: SDS-PAGE titration/co-precipitation binding isotherm

Kd: 3.2 µM
B1: Myosin regulatory light chain 2, ventricular (protein)
chain: APKKAKKRAGGANSNVFSMFEQTQIQEFKEAFTIMDQNRDGFIDKNDLRDTFAALGRVNVKNEEIDEMIKEAPGPINFTVFLTMFGEKLKGADPEETILNAFKVFDPEGKGVLKADYVREMLTTQAERFSKEEVDQMFAAFPPDVTGNLDYKNLVHIITHGEEKD

Kd: 4.9 µM
B2: Myosin regulatory light chain 2, ventricular (protein)
chain: B1 chain with D93A

Reference: article PMC4472530 (2016)
